Test results published in US20220273789A1.

Experiments:
[1] = target: human IgG (human); test: BLI Octet, construct on Ni-NTA sensor, hIgG in solution
[2] = target: human IgG (human); test: BLI (Octet), gEgI on Ni-NTA sensor, hIgG in solution
[3] = target: Human IgG isotype control (ThermoFischer Scientific, ref 12000C) (human); test: BLI, gEgI on Ni-NTA tips, hIgG in solution

Substance | Kd [1] [nM] | Response (nm) [1] [nm] | koff [1] [s⁻¹] | kon [1] [M⁻¹ s⁻¹] | Kd [2] [nM] | Response [2] [nm] | Kd [3] [nM] | Relative Affinity (%) compared to control construct HSV34 [3] [%] | koff [3] [s⁻¹] | kon [3] [M⁻¹ s⁻¹]
HSV2-gE_H245D_gI (from UniProt P89475 21-416; P06764 21-256) (receptor) | 17000 | 0.133 | 0.00772 | 453 | 17000 | 0.133 | – | – | – | –
HSV50 (HSV2- gE_P319T_gI) (from UniProt P89475 21-416; P06764 21-256) (receptor) | – | – | – | – | – | – | 8.91 | 1300 | 8.38e-05 | 9460
HSV2-gE_V340W_gI (from UniProt P89475 21-416; P06764 21-256) (receptor) | < 0.001 | 0.0751 | < 1e-07 | 3520 | 0.001 | 0.0751 | – | – | – | –
HSV2-gE_H245G R320G_gI (from UniProt P89475 21-416; P06764 21-256) (receptor) | 777 | 0.225 | 0.00407 | 5240 | 777 | 0.225 | – | – | – | –
HSV52 (HSV2- gE_H245A-P319R_gI) (from UniProt P89475 21-416; P06764 21-256) (receptor) | – | – | – | – | – | – | 2530 | 5 | 0.00304 | 1310
HSV2-gE_A246W R320T_gI (from UniProt P89475 21-416; P06764 21-256) (receptor) | < 0.001 | 0.0712 | < 1e-07 | 1510 | 0.001 | 0.0712 | – | – | – | –
HSV2-gE_H245S R320D_gI (from UniProt P89475 21-416; P06764 21-256) (receptor) | 1740 | 0.121 | 0.00468 | 2690 | 1740 | 0.121 | – | – | – | –
HSV2-gE_H245A R320T_gI (from UniProt P89475 21-416; P06764 21-256) (receptor) | 1160 | 0.23 | 0.00537 | 4620 | 1160 | 0.23 | – | – | – | –
HSV54 (HSV2- gE_H245A-P319K_gI) (from UniProt P89475 21-416; P06764 21-256) (receptor) | – | – | – | – | – | – | 883 | 13 | 0.00284 | 3370
HSV41 (HSV2-gE_338_insert ARAA_gI) (from UniProt P89475 21-416; P06764 21-256) (receptor) | – | – | – | – | – | – | 1600 | 7 | 0.00309 | 2010
HSV44 (HSV2- gE_H245K_gI) (from UniProt P89475 21-416; P06764 21-256) (receptor) | – | – | – | – | – | – | 673 | 17 | 0.00628 | 9550
HSV2-gE_A248K V340W_gI (from UniProt P89475 21-416; P06764 21-256) (receptor) | < 0.001 | 0.0613 | < 1e-07 | 3780 | 0.001 | 0.0613 | – | – | – | –
HSV2-gE_H245A R320G_gI (from UniProt P89475 21-416; P06764 21-256) (receptor) | 1410 | 0.192 | 0.00589 | 4190 | 1410 | 0.192 | – | – | – | –
HSV2-gE_V340D_gI (from UniProt P89475 21-416; P06764 21-256) (receptor) | < 0.001 | 0.115 | < 1e-07 | 5330 | 0.001 | 0.115 | – | – | – | –
HSV2-gE_P318I_gI (from UniProt P89475 21-416; P06764 21-256) (receptor) | 4440 | 0.163 | 0.00752 | 1690 | 4440 | 0.163 | – | – | – | –
HSV63 (HSV2- gE_N241A-P319D_gI) (from UniProt P89475 21-416; P06764 21-256) (receptor) | – | – | – | – | – | – | – | – | < 1e-07 | 3720
HSV57 (HSV2- gE_P319D_gI) (from UniProt P89475 21-416; P06764 21-256) (receptor) | – | – | – | – | – | – | 9580 | 1 | 0.00403 | 362
HSV61 (HSV2- gE_R320D_gI) (from UniProt P89475 21-416; P06764 21-256) (receptor) | – | – | – | – | – | – | 2400 | 5 | 0.0012 | 514
HSV55 (HSV2- gE_H245A-P319T_gI) (from UniProt P89475 21-416; P06764 21-256) (receptor) | – | – | – | – | – | – | 201 | 58 | 0.00105 | 5330
HSV42 (HSV2- gE_346_insert ADIT_gI) (from UniProt P89475 21-416; P06764 21-256) (receptor) | – | – | – | – | – | – | – | – | < 1e-07 | 5690
HSV34 (HSV2-gE_gI) (from UniProt P89475 21-416; P06764 21-256) (receptor) | – | – | – | – | – | – | 116 | 100 | 0.000541 | 3870
